Experimental data as given in patent US20060241289A1.
Read-outs that look alike come from different tables or passages of the source. Each block holds one substance with its values, some of them ahead of it.

Legend:
[1] = target: hTSH receptor expressed on CHO cells (human) (UniProt P16473); assay: cell-based or functional assay
[2] = target: TSH receptor coated onto plastic tubes or ELISA plate wells (RSR Ltd) / detergent solubilised TSH receptor; assay: Scatchard analysis, 125I-Fab on TSH receptor coated tubes
[3] = target: TSH receptor coated onto plastic tubes or ELISA plate wells (RSR Ltd) / detergent solubilised TSH receptor; assay: 125I-TSH on TSHR coated tubes, sample diluted in serum
[4] = target: TSH receptor coated onto plastic tubes or ELISA plate wells (RSR Ltd) / detergent solubilised TSH receptor; assay: 125I-TSH on TSHR coated tubes, sample diluted in assay buffer
[5] = target: TSH receptor coated onto plastic tubes or ELISA plate wells (RSR Ltd) / detergent solubilised TSH receptor; assay: inhibition of 125I-TSH binding, mean of serum and assay buffer
[6] = target: TSH receptor coated onto plastic tubes (UniProt P16473); assay: 125I-TSH binding to TSHR coated tubes, assay buffer only
[7] = target: TSH receptor coated onto plastic tubes or ELISA plate wells (RSR Ltd) / detergent solubilised TSH receptor; assay: 125I-TSH on TSHR coated tubes, healthy blood donor serum pool only
[8] = target: TSH receptor coated onto plastic tubes or ELISA plate wells (RSR Ltd) / detergent solubilised TSH receptor; assay: as above; remark: listed apart in the source
[9] = target: TSH receptor coated onto plastic tubes (UniProt P16473); assay: 125I-TSH binding to TSHR coated tubes, assay buffer only; remark: listed apart in the source
[10] = target: TSH receptor coated onto plastic tubes or ELISA plate wells (RSR Ltd) / detergent solubilised TSH receptor; assay: 125I-TSH on TSHR coated tubes, buffer only
[11] = target: TSH receptor coated onto plastic tubes or ELISA plate wells (RSR Ltd) / detergent solubilised TSH receptor; assay: 125I-TSH on TSHR coated tubes, buffer only; remark: listed apart in the source
[12] = target: TSH receptor coated onto plastic tubes or ELISA plate wells (RSR Ltd) / detergent solubilised TSH receptor; assay: 125I-TSH on TSHR coated tubes, assay buffer only
[13] = target: TSH receptor coated onto plastic tubes (UniProt P16473); assay: TSHR coated tubes; 90/672 at 2 U/L; competitor 125I-9D33
[14] = target: TSH receptor coated onto plastic tubes (UniProt P16473); assay: TSHR coated tubes; 90/672 at 8 U/L; competitor 125I-9D33
[15] = target: TSH receptor coated onto plastic tubes (UniProt P16473); assay: TSHR coated tubes; 90/672 at 40 U/L; competitor 125I-TSH
[16] = target: TSH receptor coated onto plastic tubes (UniProt P16473); assay: TSHR coated tubes; 90/672 at 8 U/L; competitor 125I-TSH
[17] = target: TSH receptor coated onto plastic tubes (UniProt P16473); assay: TSHR coated tubes; 90/672 at 1 U/L; competitor 125I-9D33
[18] = target: TSH receptor coated onto plastic tubes (UniProt P16473); assay: TSHR coated tubes; 90/672 at 2 U/L; competitor 125I-TSH
[19] = target: TSH receptor coated onto plastic tubes (UniProt P16473); assay: TSHR coated tubes; 90/672 at 40 U/L; competitor 125I-9D33
[20] = target: TSH receptor coated onto plastic tubes (UniProt P16473); assay: TSHR coated tubes; 90/672 at 1 U/L; competitor 125I-TSH

Ka [2]: 4.5e+10 M⁻¹
% inhibition [3]: 36%
mean units/mg (NIBSC 90/672) [3]: 288 units/mg
mean units/mg (NIBSC 90/672) [4]: 309 units/mg
units/mg (NIBSC 90/672) ([4]; Fab at 3 ng/mL): 265 units/mg
units/mg (NIBSC 90/672) ([4]; Fab at 10 ng/mL): 291 units/mg
units/mg (NIBSC 90/672) ([4]; Fab at 30 ng/mL): 372 units/mg
Units/mg (NIBSC 90/672), inhibition of TSH binding assay [5]: 300 Units/mg
Units/nmole (NIBSC 90/672), inhibition of TSH binding assay [5]: 15 Units/nmole
Substance: hMAb TSHR1 Fab

% 125I-TSH binding [6]: 11.1%
% of total cpm bound [7]: 14.9%
% of total cpm bound [8]: 14.7%
% 125I-TSH binding [9]: 11.5%
% of total cpm bound [10]: 16.3%
% of total cpm bound [11]: 14.7%
% binding [12]: 12.1%
% inhibition [12]: 0%
Substance: 125I-labelled TSH (ligand)

More lines, now with the values behind:

Substance: human TSH (from UniProt P01215 25-116; P01222 21-132) (ligand)
stimulation of cyclic AMP production in CHO cells transfected with the TSH receptor [1]: 10 ng/mL

Substance: NIBSC 90/672
Mean cyclic AMP per well; NIBSC 90/672 0.1 units/L (pmols per well) [1]: 1.09
Mean cyclic AMP per well; NIBSC 90/672 0.3 units/L (pmols per well) [1]: 1.49
Mean cyclic AMP per well; NIBSC 90/672 1.0 units/L (pmols per well) [1]: 3.52
Mean cyclic AMP per well; NIBSC 90/672 3.0 units/L (pmols per well) [1]: 8.16

Substance: NIBSC 90/672 (International Standard for thyroid stimulating antibody)
125I-9D33 bound (% total counts added) [13]: 11%
inhibition of 125I-9D33 binding (%) [13]: 28%
125I-9D33 bound (% total counts added) [14]: 7.1%
inhibition of 125I-9D33 binding (%) [14]: 52%
inhibition of 125I-TSH binding (%) [15]: 92%
inhibition of 125I-TSH binding (%) [16]: 68%
125I-9D33 bound (% total counts added) [17]: 13%
inhibition of 125I-9D33 binding (%) [17]: 10%
inhibition of 125I-TSH binding (%) [18]: 23%
125I-9D33 bound (% total counts added) [19]: 4.1%
inhibition of 125I-9D33 binding (%) [19]: 72%
inhibition of 125I-TSH binding (%) [20]: 12%
